# Like-named read-outs stand apart in the source and are kept apart here.
# T1: monkey CD3ε protein (monkey, UniProt Q95LI5 22-117, limits assumed)
# T1 sequence (looked up): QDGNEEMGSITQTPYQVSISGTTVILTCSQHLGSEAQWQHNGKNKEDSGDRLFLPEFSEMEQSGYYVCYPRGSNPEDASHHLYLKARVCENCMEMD
# Legend:
# [1] = target: T2, human CD3 on the cell surface (Jurkat cells, expanded human T cells, Jurkat-Lucia NFAT cells, human PBMC) (human, UniProt P07766 23-207; P04234 22-171; P09693 23-182); test: cell-based or functional assay
# T2 sequence (P07766 23-207, chain 1 of 3): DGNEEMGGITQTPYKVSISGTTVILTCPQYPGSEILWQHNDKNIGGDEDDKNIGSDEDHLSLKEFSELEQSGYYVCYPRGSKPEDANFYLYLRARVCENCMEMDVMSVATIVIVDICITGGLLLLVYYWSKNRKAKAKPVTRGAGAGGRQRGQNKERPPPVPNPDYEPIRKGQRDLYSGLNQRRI
# T2 sequence (P04234 22-171, chain 2 of 3): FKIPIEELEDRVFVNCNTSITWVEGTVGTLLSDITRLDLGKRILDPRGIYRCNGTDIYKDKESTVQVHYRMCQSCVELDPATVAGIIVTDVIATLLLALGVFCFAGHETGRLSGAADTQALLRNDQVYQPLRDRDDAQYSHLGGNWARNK
# T2 sequence (P09693 23-182, chain 3 of 3): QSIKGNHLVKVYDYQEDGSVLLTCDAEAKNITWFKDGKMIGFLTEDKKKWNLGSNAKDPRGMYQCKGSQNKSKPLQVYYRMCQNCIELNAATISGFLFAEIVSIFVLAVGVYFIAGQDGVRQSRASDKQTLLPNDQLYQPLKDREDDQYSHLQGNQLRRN
# [2] = target: T2, human CD3 on the cell surface (Jurkat …); test: FACS, expanded human T cells
# Procedure: (§1) The binding of the chimeric antibodies to CD3 on the cell surface was analyzed by detecting the binding of the antibodies to Jurkat cells and human T cells. Suspension cells Jurkat cells were scale-up cultured in T-75 cell culture flasks to the logarithmic growth phase, the supernatant of the medium was discarded by centrifugation, and the cell pellet was washed 2 times with PBS for later use. The expanded human T cells were washed 2 times with PBS for later use. After counting the cells in the previous step, the cell pellet was resuspended with [PBS+2% (w/w) BSA] blocking solution to 4×10⁶ cells/ml, and added to a 96-well FACS reaction plate at 50 μl/well, and then the chimeric antibody to be tested was added at 50 μl/well, and incubated at 4° C. for 1 h. The cells were centrifuged and washed 3 times with a PBS buffer. […] The cells were centrifuged and washed 5 times with PBS, and FACS (FACS Canto™, purchased from BD Company) was used for detection and result analysis. Data analysis was performed by software (CellQuest) to obtain the mean fluorescence […] (MFI) of the cells. And then software (GraphPad Prism8) was used for analysis, data fitting, and EC50 value calculation. The same method was used to simultaneously detect the binding of the chimeric antibodies to endogenous CD3 negative cells MOLT4 cells.
# [3] = target: T3, cynomolgus monkey CD3 on the surface of expanded monkey T cells (cynomolgus monkey, UniProt Q95LI5 22-198; Q95LI8 22-171; Q95LI7 23-181); test: FACS, expanded monkey T cells, 4 nM antibody
# T3 construct: whole, on cells; Endogenous CD3 within the TCR-CD3 complex on T cells expanded from cynomolgus monkey PBMC
# Procedure: as §1
# FACS detection and data analysis were performed on the cryopreserved monkey T cells of Example 2.4 according to the method in Example 5.1.
# [4] = target: T4, recombinant human CD3ε-ECD His protein (human, UniProt P07766 23-126); test: SPR (Biacore), antibody captured on Protein A chip
# T4 construct: extracellular domain; also called human CD3ε-His; CD3ε antigen protein; not shown: His tag
# T4 sequence (P07766 23-126): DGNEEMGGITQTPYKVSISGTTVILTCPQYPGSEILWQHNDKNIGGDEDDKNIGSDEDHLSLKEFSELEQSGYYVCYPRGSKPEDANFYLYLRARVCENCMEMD
# Procedure: Sample buffer and running buffer were HBS-EP+(10 mM HEPES, 150 mM NaCl, 3 mM EDTA, 0.05% surfactant P20) (GE Healthcare; BR-1006-69). The flow-through cell was set to 25° C. The sample block was set to 16° C. Both were pretreated with the running buffer. In each cycle, the antibody to be detected was first captured with a Protein A chip, and then a single concentration of CD3ε antigen protein (purchased from Sino Biological, Inc. (China), catalog number: 10977-H08H) was injected. The binding and dissociation processes of the antibody and the antigen protein were recorded, and finally a glycine solution (pH 1.5, GE Healthcare; BR-1003-54) was used to complete chip regeneration. The binding was measured by injecting different concentrations of recombinant human CD3ε-ECD His proteins in a solution for 240 s with a flow rate of 30 μL/min. The concentration started from 200 nM (see the detailed results for the actual concentration in the test) and was diluted at 1:1, making a total of 5 concentrations. The dissociation phase was monitored for up to 600 s and was triggered by switching from sample solution to running buffer. The surface was regenerated by washing with a 10 mM glycine solution (pH 1.5) for 30 s at a flow rate of 30 μL/min. Bulk refractive index difference was corrected by subtracting the response obtained from the goat anti-human Fc surface. Blank injection was also subtracted (=double reference). For calculation of apparent KD and other kinetic parameters, Langmuir 1:1 model was used.
# human CD3ε/δ-His [5] = target: T5, human CD3ε/δ-His (human, UniProt P07766 23-126; P04234 22-105); test: ELISA, coated antigen
# T5 construct: Bought recombinant heterodimer with His tag; also called human CD3ε/δ protein
# T5 sequence (P07766 23-126, stated change not applied, form in doubt, chain 1 of 2): as the sequence (P07766 23-126) above
# T5 sequence (P04234 22-105, stated change not applied, form in doubt, chain 2 of 2): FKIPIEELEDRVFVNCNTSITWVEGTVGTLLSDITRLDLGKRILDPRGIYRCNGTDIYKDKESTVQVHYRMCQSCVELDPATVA
# Procedure: (§2) To detect the binding activity of the humanized antibodies to CD3 protein, CD3 protein was diluted with PBS to the final concentration of […], then added to a 96-well ELISA plate at 50 μL/well, and the plate was sealed with a plastic film, and incubated overnight at 4° C. On the next day, the plate was washed 2 times with PBS, and a blocking solution [PBS+2% (v/v) BSA] was added for blocking at room temperature for 2 h. The blocking solution was poured off, and the antibody (initial concentration of 100 nM, and gradient dilution at 1:10) or a negative control antibody was added at 50 µl/well. After incubation at 37° C. for 2 h, the plate was washed 3 times with PBS. […] TMB substrate was added at 50 μl/well, and incubated at room temperature for 10 min, and then a stop solution (1.0 N HCl) was added at 50 μl/well. The OD450 nm values were read by an ELISA microplate reader (Multimode Plate Reader, EnSight, purchased from Perkin Elmer).
# [6] = target: T4, recombinant human CD3ε-ECD His protein; test: ELISA, coated antigen
# Procedure: as §2
# human CD3ε/δ-His [7] = target: T5, human CD3ε/δ-His; test: ELISA, coated antigen; remark: listed apart in the source
# Procedure: as §2
# [8] = target: T4, recombinant human CD3ε-ECD His protein; test: ELISA, coated antigen; remark: listed apart in the source
# Procedure: as §2
# human CD3ε/δ-His [9] = target: T5, human CD3ε/δ-His; test: ELISA, coated antigen; remark: listed apart in the source
# Procedure: as §2
# [10] = target: T4, recombinant human CD3ε-ECD His protein; test: ELISA, coated antigen; remark: listed apart in the source
# Procedure: as §2
# [11] = target: T2, human CD3 on the cell surface (Jurkat …); test: FACS, expanded human T cells; remark: listed apart in the source
# Procedure: as §1
# The expanded human PBMC cells were collected, and FACS detection and data analysis were performed according to the method in Example 5.1.
# human CD3ε/δ-His [12] = target: T5, human CD3ε/δ-His; test: SPR, antibody captured on Protein A chip
# Procedure: (§3) Running buffer was HBS-EP+(10 mM HEPES, 150 mM NaCl, 3 mM EDTA, 0.05% surfactant P20) (GE Healthcare; BR-1006-69). The flow-through cell was set to 25° C. The sample block was set to 16° C. Both were pretreated with the running buffer. In each cycle, an antibody to be detected was first captured with a Protein A chip, and then a single concentration of CD3ε antigen protein was injected. The binding and dissociation processes of the antibody and the antigen protein were recorded, and finally Glycine pH 1.5 (GE Healthcare; BR-1003-54) was used to complete chip regeneration. The binding was measured by injecting different concentrations of recombinant human CD3ε proteins in a solution for 240 s with a flow rate of 30 μL/min. The concentration started from 200 nM (see the detailed results for the actual concentration in the test) and was diluted at 1:1, making a total of 5 concentrations. The dissociation phase was monitored for up to 600 s and was triggered by switching from sample solution to running buffer. The surface was regenerated by washing with a 10 mM glycine solution (pH 1.5) for 30 s at a flow rate of 30 μL/min. Bulk refractive index difference was corrected by subtracting the response obtained from the goat anti-human Fc surface, and the blank injection was subtracted at the same time (=double reference). For calculation of apparent KD value and other kinetic parameters, Langmuir 1:1 model was used.
# [13] = target: T4, recombinant human CD3ε-ECD His protein; test: SPR, antibody captured on Protein A chip
# Procedure: as §3
# monkey CD3ε/δ-His = target: T6, monkey CD3ε/δ-His (monkey, UniProt Q95LI5 22-117; Q95LI8 22-105); test: ELISA, coated antigen
# T6 construct: Bought recombinant heterodimer with His tag
# T6 sequence (Q95LI8 22-105, stated change not applied, form in doubt, chain 2 of 2, one chain of several): as the sequence (P04234 22-105, stated change not applied, form in doubt, chain 2 of 2) above, with I5V, N15K, I20V, S32T, D33N, I34N, T64A, S74N, V83L counted along it
# Procedure: as §2
# (§4) To detect the binding activity of the humanized antibodies to monkey CD3 protein, CD3 protein was diluted with PBS to the final concentration of […], and then added to a 96-well ELISA plate at 50 μl/well.
# monkey CD3ε protein = target: T1, monkey CD3ε protein; test: ELISA, coated antigen
# Procedure: as §2, §4
# [14] = target: T3, cynomolgus monkey CD3 on the surface of …; test: FACS, expanded monkey T cells
# Procedure: as §1
# The expanded monkey T cells were collected, and FACS detection and data analysis were performed according to the method in Example 5.1.
# [15] = target: T3, cynomolgus monkey CD3 on the surface of …; test: FACS, expanded monkey T cells; remark: listed apart in the source
# Procedure: as §1, with “MOLT4 cells. […]” for “MOLT4 cells.”
# [16] = target: T2, human CD3 on the cell surface (Jurkat …); test: FACS, Jurkat cells
# Procedure: as §1
# [17] = target: T2, human CD3 on the cell surface (Jurkat …); test: cell-based or functional assay; remark: listed apart in the source
# [18] = target: T2, human CD3 on the cell surface (Jurkat …); test: FACS, expanded human T cells; remark: listed apart in the source
# Procedure: as §1
binder,measurement,setting,value
"8-18.1 human-murine chimeric antibody (antibody, human IgG1, kappa, V domains shown, Human IgG1 chimera) VH: QVQLQQSGAELARPGASVKMSCKASGYIFTMNTMHWVKQRPGQGLEWIGYINPYSGYTKYNQIFKDKATLTADKSSSTAYMRLSSLTSEDSAVYYCLRGGEGVWGQGTTLTVSS VL: not shown","EC50 (nM), luciferase reporter, Jurkat-Lucia NFAT cells",[1],11.8 nM
same,Maximum response value (RLU),[1],10400 RLU
same,EC50,[2],1.58 nM
same,MFI_Max,[2],8980 MFI
same,MFI at antibody concentration 4 nM,[3],16100 MFI
same,Kd,[4],0.542 nM
same,koff,[4],0.000241 s⁻¹
same,kon,[4],445000 M⁻¹ s⁻¹
"7221G20-hIgG1 (antibody, V domains shown) VH: EVQLVESGGGLVQPGRSLRLSCAASGFTFDDYSMHWVRQAPGKGLEWVSGISWNSGSIGYADSVKGRFTISRDNAKNSLYLQMNSLRAEDTALYYCAKYGSGYGKFYYYGMDVWGQGTTVTVSS VL: not shown",EC50,human CD3ε/δ-His [5],23.4 nM
same,max-OD450,human CD3ε/δ-His [5],1.31 OD450
same,max-OD450,[6],0.06 OD450
same,EC50,human CD3ε/δ-His [7],23.4 nM
same,max-OD450,human CD3ε/δ-His [7],1.31 OD450
same,binding result,[8],no binding (tested: 100 nM (initial concentration))
same,max-OD450,[8],0.15 OD450
same,EC50,human CD3ε/δ-His [9],23.4 nM
same,max-OD450,human CD3ε/δ-His [9],1.31 OD450
same,max-OD450,[10],0.05 OD450
same,EC50,[11],4.72 nM
same,max_MFI,[11],20900 MFI
"6-44.5-H1-L2 humanized antibody (antibody, human IgG1, kappa, V domains shown) VH: EVQLVQSGAEVKKPGSSVKVSCKASGHTFSSHIMHWVRQAPGQGLEWMGYINPNNDRTEYSEKFKGRVTITADKSTSTAYMELSSLRSEDTAVYYCAGEAYYSNSLYAMDYWGQGTTVTVSS VL: DIVMTQSPDSLAVSLGERATINCKSSQSLFNSRTRKNYLAWYQQKPGQSPKLLIYWASTRESGVPDRFSGSGSGTDFTLTISSLQAEDVAVYYCKQSYYLRTFGGGTKVEIKR",Kd,human CD3ε/δ-His [12],69 nM
same,koff,human CD3ε/δ-His [12],0.0339 s⁻¹
same,kon,human CD3ε/δ-His [12],491000 M⁻¹ s⁻¹
same,Kd,[13],0.669 nM
same,koff,[13],0.000311 s⁻¹
same,kon,[13],466000 M⁻¹ s⁻¹
same,EC50,human CD3ε/δ-His [5],0.03 nM
same,max-OD450,human CD3ε/δ-His [5],3.05 OD450
same,EC50,[6],0.09 nM
same,max-OD450,[6],2.7 OD450
same,EC50,monkey CD3ε/δ-His,0.000225 nM
same,max-OD450,monkey CD3ε/δ-His,3.07 OD450
same,EC50,monkey CD3ε protein,0.00947 pM
same,max-OD450,monkey CD3ε protein,2.84 OD450
same,EC50,[14],0.17 nM
same,max_MFI,[14],24800 MFI
same,EC50,[11],0.43 nM
same,max_MFI,[11],34000 MFI
"7-35.6 human-murine chimeric antibody (antibody, human IgG1, lambda, V domains shown, Human IgG1 chimera) VH: EVQLVESGGGLVQPKGSLKLSCAASGFTFNTYAMNWVRQAPGKGLEWVGRIRSKINNYATYYGDSVKDRFTISRDDSQSMFYLQMNNLKTEDTAMYYCVIHENYGSISWFAYWGQGTLVTVSA VL: QAVVTQESTLTTSPGETVTLTCRSSTGAVTTSNYANWVQEKPDHLFTGLIGGTNNRAPGVPARFSGSLIGDKAALTITGAQTEDEAIYFCALWYSNHWVFGGGTKLTVLG",EC50,[15],2.74 nM
same,EC50,[16],3.37 nM
same,MFI_Max,[16],2800 MFI
same,"EC50 (nM), luciferase reporter, Jurkat-Lucia NFAT cells",[17],11.8 nM
same,Maximum response value (RLU),[17],8570 RLU
same,Kd,[4],0.959 nM
same,koff,[4],0.000261 s⁻¹
same,kon,[4],272000 M⁻¹ s⁻¹
same,EC50,[18],4.62 nM
same,MFI_Max,[18],3800 MFI

# Source: US20250136687A1 (SHANDONG SIMCERE BIOPHARMACEUTICAL, published 2025)
